Reference: patent publication US20150299296A1 (Chugai, published 2015)

T1: human FcγRIIb extracellular domain with C-terminal His tag (human, UniProt P31994 43-217)
T1 construct: extracellular domain; For crystals it was expressed with kifunensine and trimmed with Endo F1; also called FcgRIIb; FcγRIIb extracellular region
T1 sequence (looked up): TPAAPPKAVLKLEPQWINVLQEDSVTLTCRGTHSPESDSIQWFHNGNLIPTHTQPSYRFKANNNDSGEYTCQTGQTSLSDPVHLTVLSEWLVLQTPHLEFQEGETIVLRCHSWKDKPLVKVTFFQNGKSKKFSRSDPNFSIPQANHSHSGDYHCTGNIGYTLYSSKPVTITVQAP

T2: human FcγRIIa type H extracellular domain with C-terminal His tag (human, UniProt P12318 34-217)
T2 construct: extracellular domain; also called FcgRIIaH; FcγRIIa H
T2 sequence (looked up): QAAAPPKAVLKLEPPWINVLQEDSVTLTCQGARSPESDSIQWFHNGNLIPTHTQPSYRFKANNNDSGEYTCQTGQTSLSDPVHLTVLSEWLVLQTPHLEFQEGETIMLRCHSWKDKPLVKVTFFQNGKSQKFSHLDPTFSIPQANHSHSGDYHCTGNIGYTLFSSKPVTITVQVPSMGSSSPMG


Experiments:
Test in all cases: SPR; IL6R-BF648/IL6R-L=100
[1] = target: T1, human FcγRIIb extracellular domain with …
Description: (§1) IL6R-L was utilized as the common antibody L chain for all of the antibodies, the antibodies were expressed and purified according to the method of Reference Example 1, and binding to each of the FcγRs (FcγRIa, FcγRIIa type H, FcγRIIa type R, FcγRIIb, and FcγRIIIa type V) was comprehensively evaluated by the method of Reference Example 2.
(§2) Relative binding activities were calculated for the results of analyzing interactions with the respective FcγRs according to the following method.

[2] = target: T2, human FcγRIIa type H extracellular …
Description: as §1, §2

[3] = target: T3, human FcγRIa extracellular domain with C-terminal His tag (human, UniProt P12314 16-292)
T3 construct: Whole entry named; also called FcgRIa; FcgIa
Description: as §1, §2

[4] = target: T4, human FcγRIIIa type V extracellular domain with C-terminal His tag (human, UniProt P08637 17-208)
T4 construct: extracellular domain; also called FcgRIIIaV; FcγRIIIaV
Description: as §1, §2

T3 sequence (P12314 16-292): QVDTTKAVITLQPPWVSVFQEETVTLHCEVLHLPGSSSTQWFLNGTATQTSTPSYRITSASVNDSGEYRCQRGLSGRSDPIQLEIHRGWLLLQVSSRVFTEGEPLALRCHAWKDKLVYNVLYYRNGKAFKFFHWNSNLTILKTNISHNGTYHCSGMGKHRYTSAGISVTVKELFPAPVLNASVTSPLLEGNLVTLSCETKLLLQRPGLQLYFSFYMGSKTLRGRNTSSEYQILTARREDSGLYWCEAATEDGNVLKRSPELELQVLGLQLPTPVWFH
T4 sequence (P08637 17-208 F176V): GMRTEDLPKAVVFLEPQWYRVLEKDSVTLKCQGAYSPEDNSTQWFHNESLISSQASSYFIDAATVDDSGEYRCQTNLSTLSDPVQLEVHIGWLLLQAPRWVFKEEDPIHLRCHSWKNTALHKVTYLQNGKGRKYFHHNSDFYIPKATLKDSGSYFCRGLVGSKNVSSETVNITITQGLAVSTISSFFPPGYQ

Row | relative binding activity [1] | relative binding activity [2] | relative binding activity [3] | relative binding activity [4] | Binder
1 | 156 | 207 | 155 | 126 | IL6R-2B253/IL6R-L (antibody, human IgG1, kappa, name in EU numbering) heavy: QVQLQESGPGLVKPSETLSLTCAVSGHSISHDHAWSWVRQPPGEGLEWIGFISYSGITNYNPSLQGRVTISRDNSKNTLYLQMNSLRAEDTAVYYCARSLARTTAMDYWGEGTLVTVSSASTKGPSVFPLAPSSKSTSGGTAALGCLVKDYFPEPVTVSWNSGALTSGVHTFPAVLQSSGLYSLSSVVTVPSSSLGTQTYICNVNHKPSNTKVDKKVEPKSCDKTHTCPPCPAPDLLGGDSVFLFPPKPKDTLMISRTPEVTCVVVDVSHEDPEVKFNWYVDGVEVHNAKTKPREEQYNSTYRVVSVLTVLHQDWLNGKEYKCKMSNKALPAPIEKTISKAKGQPREPQVYTLPPSRDELTKNQVSLTCLVKGFYPSDIAVEWESNGQPENNYKTTPPVLDSDGSFFLYSKLTVDKSRWQQGNVFSCSVMHEALHNHYTQESLSLSP light: not shown
2 | 115 |  | 100 | 87 | IL6R-2B261/IL6R-L (antibody, human IgG1, kappa, name in EU numbering) heavy: QVQLQESGPGLVKPSETLSLTCAVSGHSISHDHAWSWVRQPPGEGLEWIGFISYSGITNYNPSLQGRVTISRDNSKNTLYLQMNSLRAEDTAVYYCARSLARTTAMDYWGEGTLVTVSSASTKGPSVFPLAPSSKSTSGGTAALGCLVKDYFPEPVTVSWNSGALTSGVHTFPAVLQSSGLYSLSSVVTVPSSSLGTQTYICNVNHKPSNTKVDKKVEPKSCDKTHTCPPCPAPDLLGGDSVFLFPPKPKDTLMISRTPEVTCVVVDVSHEDPEVKFNWYVDGVEVHNAKTKPREEQDNSTYRVVSVLTVLHQDWLNGKEYKCKVSNKALPAPIEKTISKAKGQPREPQVYTLPPSRDELTKNQVSLTCLVKGFYPSDIAVEWESNGQPENNYKTTPPVLDSDGSFFLYSKLTVDKSRWQQGNVFSCSVMHEALHNHYTQESLSLSP light: not shown
3 | 136 | 106 | 74 | 87 | IL6R-BP082/IL6R-L (antibody, human IgG1, kappa, name in EU numbering) heavy: QVQLQESGPGLVKPSETLSLTCAVSGHSISHDHAWSWVRQPPGEGLEWIGFISYSGITNYNPSLQGRVTISRDNSKNTLYLQMNSLRAEDTAVYYCARSLARTTAMDYWGEGTLVTVSSASTKGPSVFPLAPSSKSTSGGTAALGCLVKDYFPEPVTVSWNSGALTSGVHTFPAVLQSSGLYSLSSVVTVPSSSLGTQTYICNVNHKPSNTKVDKKVEPKSCDKTHTCPPCPAPDLLGGDSVFLFPPKPKDTLMISRTPEVTCVVVDVSHEDPEVKFNWYVDGVEVHNAKTKPREEQYNSTYRVVSVLTVLHQDWLNGKEYKCKVSNKALPKPIEKTISKAKGQPREPQVYTLPPSRDELTKNQVSLTCLVKGFYPSDIAVEWESNGQPENNYKTTPPVLDSDGSFFLYSKLTVDKSRWQQGNVFSCSVMHEALHNHYTQESLSLSP light: not shown
4 | 122 |  | 50 | 107 | IL6R-BP083/IL6R-L (antibody, human IgG1, kappa, name in EU numbering) heavy: QVQLQESGPGLVKPSETLSLTCAVSGHSISHDHAWSWVRQPPGEGLEWIGFISYSGITNYNPSLQGRVTISRDNSKNTLYLQMNSLRAEDTAVYYCARSLARTTAMDYWGEGTLVTVSSASTKGPSVFPLAPSSKSTSGGTAALGCLVKDYFPEPVTVSWNSGALTSGVHTFPAVLQSSGLYSLSSVVTVPSSSLGTQTYICNVNHKPSNTKVDKKVEPKSCDKTHTCPPCPAPELLGGDSVFLFPPKPKDTLMISRTPEVTCVVVDVSHEDPEVKFNWYVDGVEVHNAKTKPREEQDNSTYRVVSVLTVLHQDWLNGKEYKCKVSNKALPKPIEKTISKAKGQPREPQVYTLPPSRDELTKNQVSLTCLVKGFYPSDIAVEWESNGQPENNYKTTPPVLDSDGSFFLYSKLTVDKSRWQQGNVFSCSVMHEALHNHYTQESLSLSP light: not shown
5 | 141 | 162 | 109 | 106 | IL6R-BP084/IL6R-L (antibody, human IgG1, kappa, name in EU numbering) heavy: QVQLQESGPGLVKPSETLSLTCAVSGHSISHDHAWSWVRQPPGEGLEWIGFISYSGITNYNPSLQGRVTISRDNSKNTLYLQMNSLRAEDTAVYYCARSLARTTAMDYWGEGTLVTVSSASTKGPSVFPLAPSSKSTSGGTAALGCLVKDYFPEPVTVSWNSGALTSGVHTFPAVLQSSGLYSLSSVVTVPSSSLGTQTYICNVNHKPSNTKVDKKVEPKSCDKTHTCPPCPAPELLGGDSVFLFPPKPKDTLMISRTPEVTCVVVDVSHEDPEVKFNWYVDGVEVHNAKTKPREEQYNSTYRVVSVLTVLHQDWLNGKEYKCKMSNKALPKPIEKTISKAKGQPREPQVYTLPPSRDELTKNQVSLTCLVKGFYPSDIAVEWESNGQPENNYKTTPPVLDSDGSFFLYSKLTVDKSRWQQGNVFSCSVMHEALHNHYTQESLSLSP light: not shown
6 | 152 | 158 | 19 | 104 | IL6R-BP085/IL6R-L (antibody, human IgG1, kappa, name in EU numbering) heavy: QVQLQESGPGLVKPSETLSLTCAVSGHSISHDHAWSWVRQPPGEGLEWIGFISYSGITNYNPSLQGRVTISRDNSKNTLYLQMNSLRAEDTAVYYCARSLARTTAMDYWGEGTLVTVSSASTKGPSVFPLAPSSKSTSGGTAALGCLVKDYFPEPVTVSWNSGALTSGVHTFPAVLQSSGLYSLSSVVTVPSSSLGTQTYICNVNHKPSNTKVDKKVEPKSCDKTHTCPPCPAPELLGDDSVFLFPPKPKDTLMISRTPEVTCVVVDVSHEDPEVKFNWYVDGVEVHNAKTKPREEQYNSTYRVVSVLTVLHQDWLNGKEYKCKVSNKALPKPIEKTISKAKGQPREPQVYTLPPSRDELTKNQVSLTCLVKGFYPSDIAVEWESNGQPENNYKTTPPVLDSDGSFFLYSKLTVDKSRWQQGNVFSCSVMHEALHNHYTQESLSLSP light: not shown
7 | 137 | 116 | 72 | 123 | IL6R-BP086/IL6R-L (antibody, human IgG1, kappa, name in EU numbering) heavy: QVQLQESGPGLVKPSETLSLTCAVSGHSISHDHAWSWVRQPPGEGLEWIGFISYSGITNYNPSLQGRVTISRDNSKNTLYLQMNSLRAEDTAVYYCARSLARTTAMDYWGEGTLVTVSSASTKGPSVFPLAPSSKSTSGGTAALGCLVKDYFPEPVTVSWNSGALTSGVHTFPAVLQSSGLYSLSSVVTVPSSSLGTQTYICNVNHKPSNTKVDKKVEPKSCDKTHTCPPCPAPELLGGDSVFLFPPKPKDTLMISRTPEVTCVVVDVSHEDPEVKFNWYVDGVEVHNAKTKPREEQYNSTYRVVSVLTVLHQDWLNGKEYKCKVSNAALPKPIEKTISKAKGQPREPQVYTLPPSRDELTKNQVSLTCLVKGFYPSDIAVEWESNGQPENNYKTTPPVLDSDGSFFLYSKLTVDKSRWQQGNVFSCSVMHEALHNHYTQESLSLSP light: not shown
8 |  | 344 | 68 | 221 | IL6R-BP195/IL6R-L (antibody, human IgG1, kappa, name in EU numbering, Same printed alterations as IL6R-BP197) heavy: QVQLQESGPGLVKPSETLSLTCAVSGHSISHDHAWSWVRQPPGEGLEWIGFISYSGITNYNPSLQGRVTISRDNSKNTLYLQMNSLRAEDTAVYYCARSLARTTAMDYWGEGTLVTVSSASTKGPSVFPLAPSSKSTSGGTAALGCLVKDYFPEPVTVSWNSGALTSGVHTFPAVLQSSGLYSLSSVVTVPSSSLGTQTYICNVNHKPSNTKVDKKVEPKSCDKTHTCPPCPAPDYLGDDSVFLFPPKPKDTLMISRTPEVTCVVVDVSDEDGEVKFNWYVDGVEVHNAKTKPREEQDNSTYRVVSVLTVLHQDWLNGKEYKCKVSNAALPKPIEKTISKAKGQPREPQVYTLPPSRDELTKNQVSLTCLVKGFYPSDIAVEWESNGQPENNYKTTPPVLDSDGSFFLYSKLTVDKSRWQQGNVFSCSVMHEALHNHYTQESLSLSP light: not shown
9 | 165 |  | 128 | 87 | IL6R-BP211/IL6R-L (antibody, human IgG1, kappa, name in EU numbering) heavy: QVQLQESGPGLVKPSETLSLTCAVSGHSISHDHAWSWVRQPPGEGLEWIGFISYSGITNYNPSLQGRVTISRDNSKNTLYLQMNSLRAEDTAVYYCARSLARTTAMDYWGEGTLVTVSSASTKGPSVFPLAPSSKSTSGGTAALGCLVKDYFPEPVTVSWNSGALTSGVHTFPAVLQSSGLYSLSSVVTVPSSSLGTQTYICNVNHKPSNTKVDKKVEPKSCDKTHTCPPCPAPDLLGGDSVFLFPPKPKDTLMISRTPEVTCVVVDVSDEDGEVKFNWYVDGVEVHNAKTKPREEQYNSTYRVVSVLTVLHQDWLNGKEYKCKVSNAALPRPIEKTISKAKGQPREPQVYTLPPSRDELTKNQVSLTCLVKGFYPSDIAVEWESNGQPENNYKTTPPVLDSDGSFFLYSKLTVDKSRWQQGNVFSCSVMHEALHNHYTQESLSLSP light: not shown
